One block for each molecule: values may come before it.
Legend:
mutant ACVR1 = experiment: ID1 gene promoter luciferase reporter in U2OS cells with transfer of mutant ACVR1; assay type: cell-based, human; conditions: U2OS cells with transfer of each mutant ACVR1 of Table 1; 10 ng/mL, 20 hours
Procedure: A Firefly luciferase reporter plasmid having the promoter region of the ID1 gene, as a typical downstream gene of BMP (Genes Cells. 2002 September; 7(9):949-60), was mixed with a plasmid including different mutant ACVR1 genes reported to elicit FOP, and FuGene HD was used on U2OS cells for transfection. At 1 hour after transfection, human activin A (final concentration: 10 ng/mL) was added and the transfected cells were cultured for 20 hours. Next, the luciferase activity was measured according to the protocol provided with a Bright-Glo Luciferase Assay System (product of Promega Corp.). In FIG. 8, each sample name is listed according to Table 1 above, based on the amino acid mutation of ACVR1.

wild type ACVR1 = target: T1, wild type ACVR1 (Homo sapiens, UniProt Q04771); experiment: ID1 gene promoter luciferase reporter in U2OS cells with transfer of wild type ACVR1; assay type: cell-based; conditions: 10 ng/mL, 20 hours
T1 construct: an iPS cell line with the ACVR1 gene mutation repaired to the normal type (wild type) by gene repair by a BAC knockin vector; endogenous in cells; host or cells: mesenchymal stem cell-like cells differentiated from the gene-corrected iPS cell clone
T1 sequence (Q04771 21-509): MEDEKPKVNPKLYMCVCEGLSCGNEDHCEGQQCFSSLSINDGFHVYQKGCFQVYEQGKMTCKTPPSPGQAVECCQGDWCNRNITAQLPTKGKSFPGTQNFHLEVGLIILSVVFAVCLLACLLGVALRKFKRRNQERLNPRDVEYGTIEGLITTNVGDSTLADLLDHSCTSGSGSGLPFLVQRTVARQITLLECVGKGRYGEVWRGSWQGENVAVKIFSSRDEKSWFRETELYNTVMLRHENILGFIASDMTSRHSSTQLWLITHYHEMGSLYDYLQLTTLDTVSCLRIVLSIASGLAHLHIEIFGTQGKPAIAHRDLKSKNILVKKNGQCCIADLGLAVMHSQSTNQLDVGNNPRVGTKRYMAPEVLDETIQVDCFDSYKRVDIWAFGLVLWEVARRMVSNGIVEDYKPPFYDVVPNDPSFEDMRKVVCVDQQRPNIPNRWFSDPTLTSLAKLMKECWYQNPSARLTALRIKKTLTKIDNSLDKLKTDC

[1] = test system: gene-corrected clone derived cells; experiment: Differentiation to chondrocytes (sulfated glycosaminoglycan assay) of gene-corrected clone derived cells; assay type: cell-based, human; conditions: 100 ng/mL BMP-7 or 1 ng/mL TGF-β3, 6 days, vs untreated group
Procedure: Mesenchymal stem cell-like cells from a patient iPS cell line and a gene-corrected iPS cell clone were each prepared by the same method as Example 1. The mesenchymal stem cell-like cells were cultured for 6 days under the medium conditions used in the method of Umeda et al. (Sci. Rep., 2012, 2, 455), for differentiation to chondrocytes. During differentiation, 100 ng/mL of human activin A, 100 ng/mL of human BMP-7 or 1 ng/mL of human TGF-β3 (product of R&D Systems, Inc., trade name: Recombinant Human TGF-beta 3) was added and the effect of each factor on differentiation to chondrocytes was examined. The extent of differentiation to chondrocytes was measured with Alcian blue dye and a sulfated glycosaminoglycan assay kit (product of Biocolor, Ltd., trade name: Blyscan Glycosaminoglycan Assay Kit). In FIG. 4, the bar graph indicates the mean values for each treated group, and the error bars represent S.D.

transcription activity via ACVR1 (ID1 gene promoter luciferase) (wild type ACVR1): not observed
Molecule: human activin A: Recombinant Human/Mouse/Rat Activin A (R&D Systems); homodimer of inhibin βA chains
transcription activity via ACVR1 (ID1 gene promoter luciferase) (mutant ACVR1): increased

B1: BMP-7: Recombinant Human BMP-7 (R&D Systems); cytokine of the BMP family (protein)
chain: STGSKQRSQNRSKTPKNQEALRMANVAENSSSDQRQACKKHELYVSFRDLGWQDWIIAPEGYAAYYCEGECAFPLNSYMNATNHAIVQTLVHFINPETVPKPCCAPTQLNAISVLYFDDSSNVILKKYRNMVVRACGCH
cartilage induction (sulfated glycosaminoglycan assay) [1]: significantly enhanced
